Data taken from publication PMC3562352.
Read-outs that look alike come from different tables or passages of the source.

Tests used:
Experiment in all cases: fluorescence anisotropy
MntR wild-type [1] = molecular target: T1, MntR wild-type (Bacillus subtilis, UniProt P54512 1-142)
T1 sequence: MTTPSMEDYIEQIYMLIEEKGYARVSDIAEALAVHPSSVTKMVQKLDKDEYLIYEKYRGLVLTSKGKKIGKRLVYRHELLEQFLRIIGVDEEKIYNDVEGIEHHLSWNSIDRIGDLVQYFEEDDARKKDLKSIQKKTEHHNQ

MntR E11K [2] = molecular target: T2, MntR E11K (Bacillus subtilis, UniProt P54512 1-142, E11K)
T2 sequence: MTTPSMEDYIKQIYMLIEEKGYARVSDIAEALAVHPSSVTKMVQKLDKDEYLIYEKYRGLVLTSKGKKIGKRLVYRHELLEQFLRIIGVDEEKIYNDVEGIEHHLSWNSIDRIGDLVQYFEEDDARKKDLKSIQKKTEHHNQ

MntR wild-type [3] = molecular target: T1, MntR wild-type; remark: listed apart in the source
MntR E11K [4] = molecular target: T2, MntR E11K; remark: listed apart in the source

B1: mntH operator 21 bp (dsDNA)
DNA 1: GAGTTTCCTTAAGGCAAATTG
DNA 2: CAATTTGCCTTAAGGAAACTC
Q: What does the source list for B1?
A: Kd (MntR wild-type [1]): 6.5 ± 0.5 nM; Kd (MntR E11K [2]): 2.4 ± 0.1 nM; Kd (MntR wild-type [3]): 5.6 ± 0.8 nM; Kd (MntR E11K [4]): 6.5 ± 1.3 nM
